The values below come from article PMC2848857, “The Crystal Structure of PPIL1 Bound to Cyclosporine A Suggests a Binding Mode for a Linear Epitope of the SKIP Protein” (PLoS ONE, 2010).

The assay has as its target T1, GST-PPIL1 fusion protein (human, UniProt Q9Y3C6 1-166).
T1 construct: Peptidyl-prolyl isomerase like 1 (PPIL1), human, full length, cloned from a human cDNA library into pGEX-6P1; also called Recombinant GST-PPIL1; Peptidyl-prolyl isomerase like 1; source: E. coli Rosetta 2, glutathione-sepharose
T1 sequence (looked up): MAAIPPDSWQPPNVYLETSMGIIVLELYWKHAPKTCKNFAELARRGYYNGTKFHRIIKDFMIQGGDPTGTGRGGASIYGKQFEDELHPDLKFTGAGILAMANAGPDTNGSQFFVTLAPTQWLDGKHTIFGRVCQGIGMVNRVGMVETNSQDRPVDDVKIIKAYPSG
Kind of assay: peptide or protein array; SKIP 20-mer peptides on cellulose membrane; GST-PPIL1 or GST alone at 40 µg/ml in blocking buffer (5% milk powder, 5% saccharose in TBS, pH 8.0), overnight at 4°C; detected with anti-GST antibody and chemiluminescence. Particulars: both partners purified.

B1: peptide A12 of the SKIP peptide array (peptide, UniProt Q13573 60-79, looked up)
peptide: DGGAFPEIHVAQYPLDMGRK
notes: The limits fit the twelfth peptide of a scan that starts at residue 49 with a one amino acid offset; source: synthetic peptide, spotted on cellulose membrane
Turning to B1, the binding result is on record as “binds”.
